Consider 23 sequences from the DeepSol protein solubility set.

This data set is described as follows: soluble on expression in E. coli; label from the status in PepcDB or PDB records.
In the case of “MGSDKIHHHHHHMRKLKREAYKLNNIKMLQQDVKYSEEVIEAEFSVEGYSLIDYKRSYTLSRALVNGKWIVYDGNRLESSQKIKEFEICEDFYHESVKAWPNKEKYSRLFTNIKLNEDDQLKVISKKISKSILIHDVKECREEKVVNYVEYNDLNFSYAGNPKDIPSIVEYLRASQSQLTSPSRQVLTESGRLTFILDSEIVASIFHYVLRNFLNGNSPKLKLNEKISSEITIYDNPLNSFSSSFSVFDDEGVKTKKKEIIGDGIITNYLGTLTSKYGEAGNARGILPKPDYFSLEVKQGDWSLNELIDESRGAYIAMGVKKSELIRNSIRITPRSVVKIGQGQIFFREIAIPLQELVTIDAVTRENRGVFIDEEHGGVTPYVRMKVRAILY”, the “soluble on expression in E. coli” value was “not soluble”.

Regarding “VLSHCLETGFLTAYLALLVNFKPDVALKCGLYHDIGKADDENGKKNHTVTGAKIGDEFYFENDVKYTIANHHNKNVDNVYCRLTQIGDKLSAG”, the “soluble on expression in E. coli” value is “not soluble”.

Regarding “MGSDKIHHHHHHMSQTQQSASITSETQSFDVILVGGGMVGAATAIGLAQQGLHIAVIESFAPEAYSPEQALDVRVSAISVASEHLLEQLGALDSLLKMRNVPYLGLETWELDGCITQFHSSQIGASHLGHIVENRLVQLALWEQMQQWENIRLFCPERVAHFARGVDTVSVHLQSGCLLEAKLLVGADGANSHVRQWAGIGISGWDYAQSAMLINIQTTQGQQDVTWQQFTPSGPRSLLPLPGNHASLVWYDDANRIKQLMQLNNKQLAEQIRQHFPARLDSDFIVEAKGSFALTRRHAQVYVKPNVVILGDAAHTINPLAGQGVNLGFKDVEALLSVIKAALTEDKPWWSTEVLGKYQAKRYLDNQLMMTTMDVFYAGFSNDILPLKLLRNGALKLANINSPLKQTVLKYAMGLN”, the “soluble on expression in E. coli” value was “not soluble”.

As for “MSLRPKMADIARMAGVDISTVSRALAGSPRVTKETRALIDQIVRDTGYVLNEAARNLRDGRANQVLVIVSDIAAPFYSDVVQGIVETLAERGINVLLGVTLRQAKREAKLGKQLLTGVVDGIITVTGSVPKPILNMQGFDRKVVAISRPVPHEGVTCVTIDNYAAAKEVMAHLYAMGHRRIVHIGGPNHSETYRDRSAAYVDFMRDHGLVELTNVRSTDSFNDDAESGFEIMKSMLNDGSRPTAVFCATDELAISAMAAARQANRNIPGDVSFFGFDDLKLAGLMHPPLSTVSVPRFEMGRRGAEELFRQIYKGEMPSTKIVLEHRLVLRDSVAKEGHHHHHH”, the “soluble on expression in E. coli” value is reported as “not soluble”.

With “AHHHHHHGSMLKEVHELLNRIWGDIFELREELKEELKGFTVEEVSEVFNAYLYIDGKWEEMKYPHPAFAVKPGGEVGATPQGFYFVFAFPKEELSKEFIEDVIRAFEKLFIYGAENFLEDFYNFEHPISGDEVWDRIVNSDEEMINFEVDLGFDKEEVKREIKRFIELARRYNLL”, the “soluble on expression in E. coli” value is recorded as “soluble”.

“SDYDADELAEALQPVIVNTPHLKKPIGLIGAKGEFHPVLLAETSFPVQKKLTLKQAKGDFLIGVYEGDHHIEEKTLEPIPKEENAEEDDESEWSDDEPEVVREKLYTLGTKLMELGIKNANGVEIIFNINKDGALRVTARDLKTGNAVKGEL”: the “soluble on expression in E. coli” value is “not soluble”.

As for “MHRLRNLREDVSDGSLGHGGGGLMYDVVVVGAGPAGSMAAKTAAEQGLKVLLVEKRQEIGTPVRCAEGISRESIEKFFEVDKKWIAAEVTGAKIYAPNKTEIVMSEEMAGNEVGYVLERKIFDRHVARLAAKAGAEVYVKTAMVDFERKDGKVKVKLRRLGEDWEVETKILIGADGVESKIGRKAGIIKTLKLNEVESCAQYLMTGLDIDESYTYFYLGRELAPGGYAWIFPKGNGSANVGIGVLPKMAERTAKEYLDAFIEKEGIEGKIVEFVAGAVPVYGEIETAVADNIMLAGDAAYHADPITGGGIANALSAGYYAGKVAAEAVQKNDFSADFLRRYDELWKNDFGKKLRRNKKLQLKFIDMDDALLNKLAGAIAGKNLREMSVAAIVKELLKAHPKLLWDLKDLFLEHHHHHH”, the “soluble on expression in E. coli” value is “soluble”.

As to “MTSSNKILLVFLLFFCIQDVASENGLDVSALSGKSKKFFFDMTKQVMGVPSLKPENLAAQAFFRSFLDKYTKLDDKVKNDMTQHVPKATKLFDAAAKKYNIDPSSAFKMLSTFFETFKKGASSEMASKGLQMAGKLLGGKGSGGGGGLLGFLGTRR”, the “soluble on expression in E. coli” value was “not soluble”.

As to “MIQARSRRPLSCSLRSSSQNPIATTFLTGGKMDRIVRQILVKLLGGERSVYELIYYQDASLREFFELLNSLRDEGLIEVESGKVRITEKGREVAEKERLKFCGDVECECCEGTGLSINPYFKEILQKYSEIAKDRPETIEVYDQGFISLEGVIRRVEFVYDRGDLNGRIFVVGDDDLFGIAASLTGMPEKVAVVDIDERLINFINRVAEEYSLNVEAFVYDVQQAFPDELKRKFDVFVTDPVETIPGLKLFLSRGVSTLKGVGGAGYFGITTLEASRRKWYEIQRMIHDMGFIITDLRRRFNVYPEDEKNFFRFQEKLPIVRHLQAKVDFNWYNSTLFRIEAVKEPKPIVEGEMIIDEKVYKDDESWATPY”, the “soluble on expression in E. coli” value is on record as “not soluble”.

With “EITPLFFQKELATPVDNLKPYTALQMEGRDIYIREGCSNCHSQMIRPFRAETERYGHYSVAGESVWEHPFLWGSKRTGPDLARVGGRYSDDWHIAHLTDPRSVVPESNMPAYSWLNTDTLDGELTGKKLATFNFLTRNRSHKDENGNAIPLYTQAEIDGAKDAVKGKTEMSALIAYLQSLGH”, the “soluble on expression in E. coli” value is “not soluble”.

For “MGSDKIHHHHHHMTSTPGISDSLLSSMNGSGANNNTSAISETQDRFMKLLIAQMKNQDPLNPMDNAEVTSQMAQLSTVTGIEKMNASLSTFISSMQATQALQASSLIGNTVLVEGNSTYLAPAETEGESAAYLGVELPIGADKLTVNIKNGAGNVVKTITVTNQPAGISSLGWNGYGDDGTKLPDGRYTIEATATTGNSSVASTPLSYEQVMSVSTGSDGVKLNLSNLAAITTDQIKQIF”, the “soluble on expression in E. coli” value is reported as “not soluble”.

On to “MPFVRPLVTVVRAGRHSYSAGLQLQQRLARSNQILNPPAEFRNYLVLQEHDPVYTVGLRTKDYTAQDEDRLRRLGADFHRTDRGGLITFHGPGQLVAYPILHLGQFVPSIRWYVATLERMVVEACHQMGISSAKATKDTGIWVGDNKICAIGIHGSRYVTTHGIGLNCCTDLQWFEHIVPCGIEGKGVTSLSKELDRHFPVEEASGALLNSFAKVFECRLQEHAKKPASSAEIG”, for which the “soluble on expression in E. coli” value is recorded as “not soluble”.

On to “MGSDKIHHHHHHMTVNSIKLLLLPALLLLVSACSSPEPIISLSGSTMGTTYHIKVVNSDRLPEAQLLQAEIDMALEVVNDQMSTYRSDSELSKFNQLQVQQSVKVSADTIKVIEEGMRLYQETDGALDITLGPVVNLWGFGPDKRPTTIPTQAQIDNAKAKMGIKELSIKGLTLTKHNADLYVDLSSIAKGFGVDKIAAILDKYHVSGYLVEIGGELNVKGTKDDNTPWRVAVEQPTTEGQAVQQVIEPGTMSLATSGDYRNFYQENGERFSHLIDPRNGYPIKHQLASATVLHSSCMTADGYATAMMVLGTEASLALAKEKNLAIMLIEKQEQGYQVYYSDAFKSYVK”, for which the “soluble on expression in E. coli” value was “not soluble”.

“MSQKTEQDDIPLADDDDTVTIISGGKTPRAAQPLPKEEPPEDPEEKARMITQVLELQNTLDDLSQRVESVKEESLKLRSENQVLGQYIQNLMSSSSVFQSSQPSRPKQ”: the “soluble on expression in E. coli” value is on record as “soluble”.

In the case of “VNKSQLIDKIAAGADISKAAAGRALDAIIASVTESLKEGDDVALVGFGTFAVKERAARTGRNPQTGKEITIAAAKVPSFRAGKALKDAVN”, the “soluble on expression in E. coli” value was “soluble”.

“MNDEIISNLHMLSAVHRSLPRDARKDYLSRVRGKVEHLYKAIQGNKKPEINFEVSLEEAKLADKYLKDAKKVRIGNTMSDRDEYLGLLEIADNDERKCVFIHVSIGGIEEGCIVIQLFNDIVPRTAQNFESWCTGEKRGKYGEPLHLKECEIKMILPGSVIGFGDFEENCEYFDDEKSKENHCKNVLSMNIDKSENSSAPLFNMELSDGVDRAGKAIVFGKVVMGNRVIEKVLLAGSRDGIPEQTVKISDCGEMFRGGHSHF”: the “soluble on expression in E. coli” value was “not soluble”.

As to “MKFSVLMSLYIKENPQFLRECFESLVAQTRQADEIVLVFDGVVTPDLEFVVTEFETKLPLKLVKLPQNRGLGKALNEGLLHCDYDWVFRMDTDDICVPDRFEKQVAFIEQHPESIIFGGQIAEFGKNVNDIVAYRNVPTSAQEIIKFTQKRCPFNHMTVAYQKSAVINCGGYEDLQEDYYLWIKLVAQGLYMANLPDILVYARVGNGMVSRRRGVNQAKAEWRLFKLKYRLGIQGLLSGLFTFALRFGSRLLPTSLLKKLYQTFLRK”, the “soluble on expression in E. coli” value is “soluble”.

Take “GPLGSKDTRPQTDDVLNTKGNTFEDFYLKRELLMGIFEAGFEKPSPIQEEAIPVAITGRDILARAKNGTGKTAAFVIPTLEKVKPKLNKIQALIMVPTRELALQTSQVVRTLGKHCGISCMVTTGGTNLRDDILRLNETVHILVGTPGRVLDLASRKVADLSDCSLFIMDEADKMLSRDFKTIIEQILSFLPPTHQSLLFSATFPLTVKEFMVKHLHKPYEINLMEELTLKGITQYYAFVEERQKLHCLNTLFSKLQINQAIIFCNSTNRVELLAKKITDLGYSCYYSHARMKQQERNKVFHEFRQGKVRTLVCSDLLTRGIDIQAVNVVINFDFPKTAETYLHRIGRSGRFGHLGLAINLINWNDRFNLYKIEQELGTEIAAIPATIDKSLYVAENDET”: the “soluble on expression in E. coli” value was “soluble”.

Consider “MGSDKIHHHHHHMKVVIISGGNSPSYTLIKKELRESEYLIAADSGANTLFKYDVFPDYIIGDLDSIKTVALNYYKNRKVSILQYPPEKDYTDTEIAVNKAIDLGATEIVLLGCTGSRIDHLFGNIGMLLKCLKLGVSCVIKDDNNTIFLTETSIKIRGSLGKTFSIIPYSEEISDLTIIGAKYPLNNYKMKIGSAIGISNVFEEEEVKVQFNSGKILIVYPTD”, for which the “soluble on expression in E. coli” value is “not soluble”.

Consider “SNLLYKRWVERCRNIVDKLSEDRIGYVHVKGMDSQSFREVYSEVLGRCRNKEAIIVDTRHNGGGWLHDDLATLLSGKEYQRFVPRGQYIGSDPFNKWLKPSCVLVCEDNYSNAHGFPWVYKELKIGKLIGAPVPGTMTAVWWENQIDPSIVFGIPQVGCMDMRGQYAENHQLSPDIEVYNTPEKALAGEDQQLEAAVQEMLKTIGEKK”, for which the “soluble on expression in E. coli” value is recorded as “not soluble”.

Consider “MAHHHHHHMQPFQFVPQVDNKVNVVSMQPFQMYVPNHNMMVPQACPENIQQYHHQPIFFEPLPPIYVKNQLLPSPILVQMPTTVVVQNESQPAMVLSQPPSNIVVKNNPPTSVFVKQSNPNVVVKNEAPPNYVQSVEACQEGVVADMSRPMMTTLNKNIL”, for which the “soluble on expression in E. coli” value was “not soluble”.

Turning to “MERAPLLELKGIRKRFGELEVLRGVDLALYPGEILALLGPSGCGKTTLLRVVAGLEVPDAGRVFLEGRDITALPPEKRGIGFVFQDYALFPHLTALGNVAFGLKGKDRLARARKALERVGMTLFQDRRPGELSGGQQQRVALARALAPGPKLVLLDEPFSSLDAGLRAATREEVRKVLKETGTAALLVTHDQEEALSFADRLGVMRGGEILQVGTPEEVYLRPKTPFVAQFLGRTNLLPGEGRGRYAETCLGRVPLAEAREGPLLLSLRPEALRLTPPGQGPQGEVVAREFKGHDLTYRVRLHGVQPEREVLVQEGPTCPFKVGDRVGLEVVGEGVALEGTPPAPVRQEA”, the “soluble on expression in E. coli” value is listed as “soluble”.

“MKIIARDRGTGKTTELVKESARTGQYILASNKSHVRAIEQIAKKAGVTIPYPVTVDEIVSMDRFTCASSIQRDGLLVDEAIMVLSKLIGLKITGATISLEGEQQC”: the “soluble on expression in E. coli” value is given as “not soluble”.
